Molecular target: T1, OsARF25 B3 domain (OsARF25 123-243-GST) (Oryza sativa) (UniProt Q2QM84)
T1 sequence: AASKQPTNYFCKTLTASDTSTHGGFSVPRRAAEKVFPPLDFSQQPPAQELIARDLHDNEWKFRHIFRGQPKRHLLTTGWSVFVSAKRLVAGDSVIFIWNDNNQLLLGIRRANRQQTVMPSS
Assay: EMSA
Details: 20 uL: 50 ng probe, 2 ug protein, 2 uL 10x buffer (100 mM Tris, 500 mM KCl, 10 mM DTT, pH 7.5) plus 1 uL each of 1 M KCl, 50% glycerol, 0.5 M EDTA

TGATGAATTGAAAAGCTTGAATTCACTTCACATGCCGGCCACAATTACGGCGTTATTAGGCGGGACATGGGCATAGGAAAACCGGAAAGGTGTCCAAGGCGTTGCAGAGAATGTAGTGTGTCGGTCATAGGCTGCAAGCGAGTGCACTCCCACTTGCACCCAGGGATATATATTATCGTCATGCATGTGCCTTATGCTCTTGTCAAGCAATATTTTTTGGCAAGGCATGTGCTCTGTATGTATATAAAACTC (double strand) [proSG1 probe]
binding: binds

GAGTTTTATATACATACAGAGCACATGCGGCATCAATGAGCAACAGGGTTTGCATGCGTTGCTGCTGCTTGAGTTCTAGTATTAGTATTTTTATTTCATCTTAATGCTTGAGCCAATAGTTCCTGAGCTGAGACATGTGCAGAAGTATCTCGTCTCGGCCTTGATTGGTGACACTGCTCGTCATGATCCAAGGGGGTGCTGCCTCAAAATATTCACGGATCGAATTCAAGCTTTTCAATTCATCA (double strand) [proOsOFP04 probe]
binding: binds
